Reference: PMC12861479, “SlERF.D2-mediated antagonism between ethylene and ABA signaling pathways modulates osmotic stress adaptation in tomato”

Experiments:
Assay in all cases: EMSA; not stated; EMSA performed as in a previous study (ref 68)
[1] = target: T1, MBP-SlEIL1 (Solanum lycopersicum (tomato), UniProt Q94FV4 1-610); details: protein: recombinant; tags: MBP (pMAL-c5G); chain copies: 2; label: 5' biotin; blunt
T1 sequence: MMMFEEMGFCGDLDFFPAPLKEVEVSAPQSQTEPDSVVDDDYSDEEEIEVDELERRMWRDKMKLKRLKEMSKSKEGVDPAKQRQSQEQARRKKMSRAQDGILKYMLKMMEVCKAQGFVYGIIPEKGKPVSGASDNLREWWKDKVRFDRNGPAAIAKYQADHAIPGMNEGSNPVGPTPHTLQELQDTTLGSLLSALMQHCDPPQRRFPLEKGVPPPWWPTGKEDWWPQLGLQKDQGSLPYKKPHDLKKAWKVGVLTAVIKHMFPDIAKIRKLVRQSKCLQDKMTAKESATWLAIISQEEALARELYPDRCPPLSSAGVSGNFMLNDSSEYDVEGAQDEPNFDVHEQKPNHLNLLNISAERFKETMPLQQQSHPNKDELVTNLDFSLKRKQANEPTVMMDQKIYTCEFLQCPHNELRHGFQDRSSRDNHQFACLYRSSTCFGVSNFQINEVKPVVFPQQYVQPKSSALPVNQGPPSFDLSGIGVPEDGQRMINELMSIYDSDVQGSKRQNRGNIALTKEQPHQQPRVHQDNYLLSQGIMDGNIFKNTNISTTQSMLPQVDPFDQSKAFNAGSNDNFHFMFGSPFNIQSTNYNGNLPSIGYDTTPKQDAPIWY

[2] = target: MBP-SlEIL4 (Solanum lycopersicum (tomato), UniProt A0A3Q7GZH0 1-605); details: protein: recombinant; tags: MBP (pMAL-c5G); label: 5' biotin; blunt
[3] = target: T2, MBP-SlEIL3 (Solanum lycopersicum (tomato), UniProt Q94FV2 1-601); details: protein: recombinant; tags: MBP (pMAL-c5G); chain copies: 2; label: 5' biotin; blunt
T2 sequence: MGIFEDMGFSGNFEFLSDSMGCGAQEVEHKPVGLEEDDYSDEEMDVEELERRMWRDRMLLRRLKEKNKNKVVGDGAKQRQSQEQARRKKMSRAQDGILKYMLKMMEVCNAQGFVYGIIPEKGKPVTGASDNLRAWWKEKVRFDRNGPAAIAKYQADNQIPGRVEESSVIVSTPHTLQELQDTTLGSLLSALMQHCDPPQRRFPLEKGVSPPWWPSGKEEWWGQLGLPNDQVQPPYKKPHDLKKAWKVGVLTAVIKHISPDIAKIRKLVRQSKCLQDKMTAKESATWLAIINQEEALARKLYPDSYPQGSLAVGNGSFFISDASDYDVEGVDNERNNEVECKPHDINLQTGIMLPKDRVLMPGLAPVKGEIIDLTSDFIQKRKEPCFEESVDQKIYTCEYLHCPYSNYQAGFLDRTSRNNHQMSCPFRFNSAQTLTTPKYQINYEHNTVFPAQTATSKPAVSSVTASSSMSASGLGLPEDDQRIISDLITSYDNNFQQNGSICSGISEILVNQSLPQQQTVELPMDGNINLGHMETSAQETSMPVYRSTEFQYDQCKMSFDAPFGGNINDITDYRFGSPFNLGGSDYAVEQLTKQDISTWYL

[4] = target: T3, MBP-SlEIL2 (Solanum lycopersicum (tomato), UniProt Q94FV3 1-614); details: protein: recombinant; tags: MBP (pMAL-c5G); chain copies: 2; label: 5' biotin; blunt
T3 sequence: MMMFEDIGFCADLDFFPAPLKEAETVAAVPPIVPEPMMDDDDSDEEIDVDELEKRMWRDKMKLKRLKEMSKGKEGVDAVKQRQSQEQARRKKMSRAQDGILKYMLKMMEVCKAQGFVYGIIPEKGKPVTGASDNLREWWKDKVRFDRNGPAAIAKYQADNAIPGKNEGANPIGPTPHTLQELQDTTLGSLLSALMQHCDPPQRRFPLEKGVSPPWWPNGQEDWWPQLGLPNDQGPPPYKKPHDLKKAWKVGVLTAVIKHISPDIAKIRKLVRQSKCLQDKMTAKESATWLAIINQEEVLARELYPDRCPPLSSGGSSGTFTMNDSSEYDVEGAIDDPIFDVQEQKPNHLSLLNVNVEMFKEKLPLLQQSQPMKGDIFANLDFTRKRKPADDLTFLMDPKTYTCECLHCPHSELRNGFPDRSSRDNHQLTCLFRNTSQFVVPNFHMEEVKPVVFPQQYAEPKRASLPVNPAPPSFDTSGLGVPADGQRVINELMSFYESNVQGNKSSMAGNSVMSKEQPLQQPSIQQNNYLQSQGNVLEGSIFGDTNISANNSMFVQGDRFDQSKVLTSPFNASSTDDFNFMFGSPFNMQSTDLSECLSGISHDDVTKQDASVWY

Measured: binding result

B1: SlERF.D2 promoter EBS probe WT (dsDNA)
DNA 1: GTTATAACAGACATACATGCGCTAATATCG
DNA 2: CGATATTAGCGCATGTATGTCTGTTATAAC
binds: all assays above
